Experimental data: US20170343530A1

Molecular target: mutant connector conjugated with a Strep-tag to its C-terminal
Experiment: cell-based or functional assay

Substance “streptavidin (coated on nanogold) (from UniProt P22629 37-163)” has a three discrete steps of channel change (conductance assay) of 32%.
